Data taken from paper doi:10.1101/102160.

Tests used:
[1] = target: CTD2, C-terminal domain of the OCP2 from Fremyella diplosiphon, with C-terminal HisTag (Fremyella diplosiphon UTEX481); assay: SEC
[2] = target: NTD1-CTD1 heterodimer (with canthaxanthin) (Fremyella diplosiphon UTEX481); assay: SEC

Row | Substance | stoichiometry N [1] | stoichiometry N [2]
1 | CTD2, C-terminal domain of the OCP2 from Fremyella diplosiphon, with C-terminal HisTag (domain or fragment) | 2 | –
2 | NTD1-CTD1 heterodimer (with canthaxanthin) (complex) | – | 2
